biological target: palm-Mover-flag (not stated | rat); experiment: plasma membrane recruitment assay in cells (immunofluorescence, line scans); Vero cells co-transfected with palm-Mover-flag and a myc- or GFP-tagged Mover construct; fixed after 24 h, stained against the tags; a cell is positive for recruitment when the fluorescence profiles co-peak in the cell periphery

Row | Substance | percent of cells showing recruitment (percent of cells)
1 | GFP-Mover 34–266 (domain or fragment) | 71
2 | Mover-GFP (natural protein) | 61
3 | GFP-Mover 52–266 (domain or fragment) | 86
4 | GFP-Mover (natural protein) | 94
5 | Mover-myc (natural protein) | 94

Reference: publication PMC3665746
